Experimental data published in patent US20200283521A1.

Target: human FcRn (human) (UniProt P55899)
Assay: SPR steady state at pH 6, FcRn coupled

Sequence of human FcRn (human) (P55899 24-297 limits assumed, chain 1 of 2): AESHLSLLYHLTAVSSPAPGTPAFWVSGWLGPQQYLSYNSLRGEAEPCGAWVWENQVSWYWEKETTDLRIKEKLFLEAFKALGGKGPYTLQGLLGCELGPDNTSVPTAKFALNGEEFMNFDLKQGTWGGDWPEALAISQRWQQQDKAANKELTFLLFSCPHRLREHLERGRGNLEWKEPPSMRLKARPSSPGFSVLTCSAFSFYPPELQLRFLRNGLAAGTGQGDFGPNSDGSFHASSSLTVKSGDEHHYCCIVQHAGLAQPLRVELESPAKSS
Sequence of human FcRn (human) (chain, as listed by the source limits assumed, chain 2 of 2): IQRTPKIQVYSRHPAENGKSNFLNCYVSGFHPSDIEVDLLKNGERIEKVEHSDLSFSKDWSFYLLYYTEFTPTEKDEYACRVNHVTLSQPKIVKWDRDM

Row | Substance | Kd [µM]
1 | isotype control human IgG4 antibody | 2.6
2 | isotype control human IgG1 (antibody) | 1.18
